According to US10077295B2, “Glycoproteins having lipid mobilizing properties and therapeutic uses thereof” (Aston University, priority 2010, dated 2018):

Columns and labels:
ob/ob mice [1] = assay: Insulin tolerance test in ob/ob mice administered ZAG for 3 days; type: in vivo, mouse
Description: An insulin tolerance test was also carried out in ob/ob mice administered ZAG for 3 days (FIG. 23). Animals were administered two doses of insulin (10 and 20 U/kg) by i.p. injection and blood glucose was measured over the next 60 min. […] The glucose disappearance curve for 20 U/kg+PBS was almost identical to 10 U/kg+ZAG, so at this dose level ZAG is reducing the requirement for insulin by 50%, but this can be overcome by giving more insulin.

β3-AR = β3-AR (Homo sapiens, UniProt P13945); assay: [125I] ZAG binding to crude membranes of CHO-K1 β3 cells; parameters: host or cells: CHO-K1
Chain of β3-AR (P13945 whole entry): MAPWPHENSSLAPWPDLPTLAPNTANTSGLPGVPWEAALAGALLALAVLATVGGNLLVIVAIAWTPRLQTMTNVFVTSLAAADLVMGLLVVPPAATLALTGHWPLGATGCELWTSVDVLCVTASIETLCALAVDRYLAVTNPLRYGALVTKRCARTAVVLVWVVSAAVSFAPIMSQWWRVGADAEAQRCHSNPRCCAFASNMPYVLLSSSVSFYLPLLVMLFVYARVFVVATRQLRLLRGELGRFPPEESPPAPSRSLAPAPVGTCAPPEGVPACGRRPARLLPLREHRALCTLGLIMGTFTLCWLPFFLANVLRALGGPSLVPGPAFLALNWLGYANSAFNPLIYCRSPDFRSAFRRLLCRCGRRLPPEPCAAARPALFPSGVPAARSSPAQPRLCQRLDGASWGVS
Description: [^125I] labelling of ZAG. One iodo bead that had been washed and dried was incubated with Na [^125I] (1 mCi per 100 μg protein) for 5 min in PBS, then ZAG (100 μg protein) was added and left for a further 15 min. The reaction was terminated by removal of the iodo bead, while free Na [^125I] was removed using a Sephadex G25 column eluted with 0.1MNaI. The [^125I] ZAG was concentrated against PBS using a Microcon microconcentrator with a filter cut-off of Mr 10,000. The specific activity of the [^125I] ZAG was 8 Cimg protein^1.
For binding studies cells were sonicated in 2 mM Tris HCl, pH7.5, containing […] and crude total membranes were pelleted by centrifugation (13,000 g; 15 min) at 4° C. Binding studies were carried out at 37° C. by incubating membranes (500 μg protein) in 0.4 ml 50 mM Tris HCl, pH 7.5, containing 0.5 mM MgCl2 for 60 min with various concentrations of [^125I] ZAG (3,000 to 15,000 cpm) in the absence or presence of 100 μM non-labelled ZAG. The membranes were then precipitated by centrifugation at 13000 g for 20 min, the supernatant was removed and the [^125I] bound to the pellet was quantitated using a Packard Corbra Model 5005 Auto-gamma counter. Binding was analysed using non-linear regression analysis (GraphPad Prism, Version 5.04). Specific binding was regarded as the amount of labelled ZAG displaced by non-radioactive ZAG.

ob/ob mice [2] = assay: Body weight loss by route of administration of ZAG in ob/ob mice; type: in vivo, mouse; settings: intraveneous, 50 ug/day
[3] = test system: WAT, BAT and gastrocnemius muscle of male Wistar rats; assay: Western blots of tissues from rats treated with ZAG; type: in vivo, rat
Description: Samples of epididymal WAT, BAT and gastrocnemius muscle excised from rats treated with ZAG or PBS for 5 days were homogenized in 0.25M sucrose, 1 mM HEPES, pH 7.0 and […], and then centrifuged for 10 min at 4,500 rpm. Samples of cytosolic protein (10 μg) were resolved on 12% sodium dodecylsulphate polyacrylamide gel electrophoresis and the proteins were then transferred onto 0.45 μm nitrocellulose membranes, which had been blocked with 5% Marvel in Tris-buffered saline, pH 7.5, at 4° C. overnight, and following four 15 min washes with 0.1% Tween in PBS, incubation with the secondary antibody was performed for 1 h at room temperature. Development was by ECL.

ob/ob mice [4] = assay: Body weight loss by route of administration of ZAG in ob/ob mice; type: in vivo, mouse; settings: for Body weight loss / % of i.v. loss over the same time: 50 ug/day
Description: The goal of the study was to compare the efficacy of ZAG via various routes of administration. Mice were orally administered 50 μg ZAG or PBS (control). The results of are shown in FIGS. 31, 32, 33 (8 day oral ZAG study); 36, 37, 40 (8 day oral ZAG plus propranolol study); and FIGS. 47, 48 (oral ZAG gavage study). As shown in these repeated studies, ZAG was unexpectedly shown to be effective in bringing about weight change when administered orally by simply mixing low doses of ZAG in the drinking water of mice without requiring systemic absorption of administered ZAG. Typical oral dosing of proteins, such as insulin, can require up to 10× (or mega dosing) the intravenous dose to achieve the same level of efficacy and such limited efficacy requires systemic absorption of such proteins.

ob/ob mice [5] = assay: ob/ob mice treated with ZAG, 21 day study; type: in vivo, mouse
Description: FIG. 7A is a graphical diagram showing weight loss of the ob/ob mice during the 21 day study. ZAG was injected at days 1, 4, 5, 8, 13, 16, 18, and 19; PBS was injected at the same time points.
Animals—Mice. Homozygous obese (ob/ob) mice from the colony maintained at Aston University were used in the present study. The origin and characteristics of Aston ob/ob mice have been previously described. Male mice (20-21 weeks old, weight 90-100 g) were grouped into three per cage in an air conditioned room at 22±2° C. with a 12 h-light:12 h-dark cycle and fed a rat and mouse breeding diet (Special Diet Services, Witham, UK) and tap water ad libitum. They were administered ZAG (35 μg) in PBS (100 μl) b.d. by i.v. administration and body weight and food and water intake were monitored daily. Control mice received PBS alone. Body temperature was measured daily by the use of a rectal thermometer (RS Components, Northants, UK). All animal experiments were carried out in accordance with the U.K. Animals (Scientific Procedures) Act 1986.
After 21 days, the plasma metabolite levels in the ob/ob mice were observed (Table 2), with monitored parameters shown in Table 3. […] It was noted that there is much more insulin in the pancreas in ZAG treated animals showing the drop in plasma insulin, which is not due to lower insulin production (e.g., as would happen with a toxin to pancreatic beta cells), but rather due to the fact that less insulin is needed to control blood glucose in the ZAG treated animals.

B1: ZAG: recombinant full length human zinc-α2-glycoprotein (SEQ ID NO: 1) secreted by transfected HEK293F cells; lipid mobilizing factor (protein, listed as Homo sapiens)
chain: QENQDGRYSLTYIYTGLSKHVEDVPAFQALGSLNDLQFFRYNSKDRKSQPMGLWRQVEGMEDWKEDSQLQKAREDMETLKDIVEYYNDSNGSHVLQGRFGCEIENNRSSGAFWKYYYDGKDYIEFNKEIPAWVPFDPAAQITKQKWEAEPVYVQRAKAYLEEECPATLRKYLKYSKNILDRQDPPSVVVTSHQAPGEKKKLKCLAYDFYPGKIDVHWTRAGQVQEPELRGDVLHNGNGTYQSWVVVAVPPQDTAPYSCHVQHSSLAQPLVVPWEAS
ob/ob mice [1]; 10 U/kg insulin+ZAG vs 20 U/kg+PBS
  reduction of the requirement for insulin: 50%
ob/ob mice [1]; insulin 10 U/kg i.p.
  sensitivity to insulin: increased sensitivity to insulin
β3-AR
  Bmax at β3-AR relative to β2-AR: about three times
  Kd at β3-AR, fold lower than that of CGP12177: about 100 fold
β3-AR; single freeze/thaw cycle
  effect of freeze-thawing on binding to β3-AR: eliminated binding
ob/ob mice [2]; 8 Days
  % of i.v. loss over the same time: 100%
ob/ob mice [2]; 20 Days
  % of i.v. loss over the same time: 100%
ob/ob mice [2]; 70 g ob/ob mice, 8 Days
  Body weight loss: −6.0%
[3]; rats
  expression of ATGL and HSL in epididymal adipose tissue: two-fold increase
  expression of UCP-1 and -3 in BAT and WAT: almost two-fold
  phosphorylated forms of PKR and eIF2 α-subunit in gastrocnemius muscle: significant reduction
[3]; rats treated for 10 days
  expression of ZAG in skeletal muscle, WAT and BAT: significantly increased
ob/ob mice [4]; after 5 days of dosing
  efficacy of lowering of urinary glucose, oral vs i.v.: equally as good
ob/ob mice [4]; intraveneous, 20 Days
  Body weight loss: −9.0%
ob/ob mice [4]; oral-casein (casein with ZAG in drinking water), 8 Days
  Body weight loss: −3.4%
ob/ob mice [4]; oral-casein, 8 Days
  % of i.v. loss over the same time: 57%
ob/ob mice [4]; oral-casein, 20 Days
  % of i.v. loss over the same time: 76%
  Body weight loss: −6.8%
ob/ob mice [4]; oral-gavage (directly into the stomach), 8 Days
  Body weight loss: −2.3%
ob/ob mice [4]; oral-gavage, 8 Days
  % of i.v. loss over the same time: 38%
ob/ob mice [4]; oral-water (in the drinking water), 8 Days
  Body weight loss: −4.3%
ob/ob mice [4]; oral-water, 8 Days
  % of i.v. loss over the same time: 72%
ob/ob mice [4]; oral-water, 20 Days
  % of i.v. loss over the same time: 68%
  Body weight loss: −6.1%
ob/ob mice [4]; same dose
  weight-loss efficacy of oral dosing relative to intravenous administration: ≤ 75%
ob/ob mice [5]; ob/ob mice
  weight of the gastrocnemius muscles: 0.7 ± 0.1 g
ob/ob mice [5]; ob/ob mice (FIG. 7)
  weight of brown adipose tissue: 0.52 ± 0.08 g
ob/ob mice [5]; ob/ob mice, Day 21
  BAT weight: 0.41 ± 0.35 g
  Gastrocnemius weight: 0.39 ± 0.12 g
  Glucose (plasma): 15.2 ± 2.1 mmol/L
  Glycerol (plasma): 450 ± 36.2
  Insulin (plasma): 28.5 ± 0.34 ng/mL
  Insulin Pancreas: 14.5 ± 2.5 pg/g pancerase
  NEFA (plasma): 0.22 ± 0.06 mEq/l
  Soleus weight: 0.18 ± 0.07 g
  Triglycerides (plasma): 0.89 ± 0.08 mmol/L
  blood glucose: 15.2 mM
ob/ob mice [5]; ob/ob mice, Day 21, in g
  Finish weight: 83.95 ± 2.2
ob/ob mice [5]; ob/ob mice, just before maximum weight loss
  peak body temperature: 38.1 °C
